From article doi:10.1101/2023.11.25.568662

Legend:
[1] = molecular target: bv2 displayed on E. coli (Intimin fusion); assay: flow cytometry on cells
[2] = molecular target: 16 unique Boskar4 variants displayed on E. coli; assay: flow cytometry on cells

fold increase of expression-normalized binding over Boskar4 [1]: 37 fold
fold increase of expression-normalized binding over Boskar4 [2]: 3 fold
B1: biotinylated recombinant human G-CSFR (BioGCSFR) (receptor)
chain: ECGHISVSAPIVHLGDPITASCIIKQNCSHLDPEPQILWRLGAELQPGGRQQRLSDGTQESIITLPHLNHTQAFLSCCLNWGNSLQILDQVELRAGYPPAIPHNLSCLMNLTTSSLICQWEPGPETHLPTSFTLKSFKSRGNCQTQGDSILDCVPKDGQSHCCIPRKHLLLYQNMGIWVQAENALGTSMSPQLCLDPMDVVKLEPPMLRTMDPSPEAAPPQAGCLQLCWEPWQPGLHINQKCELRHKPQRGEASWALVGPLPLEALQYELCGLLPATAYTLQIRCIRWPLPGHWSDWSPSLELRTTERAPTVRLDTWWRQRQLDPRTVQLFWKPVPLEEDSGRIQGYVVSWRPSGQAGAILPLCNTTELSCTFHLPSEAQEVALVAYNSAGTSRPTPVVFSESRGPALTRLHAMARDPHSLWVGWEPPNPWPQGYVIEWGLGPPSASNSNKTWRMEQNGRATGFLLKENIRPFQLYEIIVTPLYQDTMGPSQHVYAYSQEMAPSHAPELHLKHIGKTWAQLEWVPEPPELGKSPLTHYTIFWTNAQNQSFSAILNASSRGFVLHGLEPASLYHIHLMAASQAGATNSTVLTLMTLTPEGSELH
modifications: biotin (Biotin-NHS, 1:20 molar ratio G-CSFR:Biotin-NHS)
